Legend:
HLA-A*24:03 [1] = assay: IEDB peptide-MHC binding, purified MHC/competitive/fluorescence; filed as Kd, often an IC50 or EC50 that approximates it; ≥ and ≤ were set here for values at or beyond the usual limits of such assays
HLA-B*57:01 [2] = assay: as above
HLA-B*51:01 = assay: as above
HLA-A*26:01 = assay: as above
HLA-A*02:11 = assay: as above
HLA-B*18:01 [3] = assay: as above; conditions: source organism: Vibrio parahaemolyticus K5030
HLA-A*02:01 [4] = assay: as above
HLA-B*46:01 [5] = assay: as above
HLA-A*03:01 [6] = assay: as above
HLA-B*27:03 = assay: as above
HLA-A*02:19 = assay: as above
HLA-A*29:02 [7] = assay: as above; conditions: source organism: Vibrio parahaemolyticus K5030
HLA-A*02:03 = assay: as above; conditions: source organism: Cryptosporidium parvum Iowa II
HLA-B*15:17 = assay: as above
HLA-B*15:01 [8] = assay: as above; conditions: source organism: Cryptosporidium parvum Iowa II
HLA-B*44:02 = assay: IEDB peptide-MHC binding, purified MHC/direct/fluorescence; filed as Kd, often an IC50 or EC50 that approximates it; ≥ and ≤ were set here for values at or beyond the usual limits of such assays
HLA-B*27:05 = assay: as above
HLA-B*39:01 = assay: as above
HLA-B*57:01 [9] = assay: as above
HLA-A*01:01 = assay: as above
HLA-B*18:01 [10] = assay: as above
HLA-B*48:01 = assay: as above
HLA-A*69:01 = assay: as above
HLA-B*07:02 = assay: as above
HLA-A*02:01 [11] = assay: as above
HLA-B*46:01 [12] = assay: as above
HLA-A*03:01 [13] = assay: as above
HLA-B*58:01 = assay: as above
HLA-A*24:03 [14] = assay: as above; conditions: source organism: Maporal virus
HLA-A*02:12 = assay: as above; conditions: source organism: Maporal virus
HLA-B*15:01 [15] = assay: as above
HLA-A*31:01 = assay: as above
HLA-A*68:02 = assay: as above; conditions: source organism: Maporal virus
HLA-A*29:02 [16] = assay: as above
HLA-B*40:01 = assay: as above
HLA-A*11:01 = assay: as above
HLA-B*08:02 = assay: as above; conditions: source organism: Influenza A virus(A/swine/Shandong/fNY/2003(H9N2))
HLA-B*08:01 = assay: as above; conditions: source organism: Influenza A virus (A/Viet Nam/HN/2004(H5N1))
HLA-A*24:02 = assay: as above; conditions: source organism: Influenza A virus (A/Viet Nam/HN/2004(H5N1))
[17] = source organism: Vibrio parahaemolyticus K5030
[18] = source organism: Cryptosporidium parvum Iowa II
[19] = source organism: Orthohantavirus andesense
[20] = source organism: Influenza A virus (A/Viet Nam/HN/2004(H5N1))
[21] = source organism: Mycobacterium avium 104

Sequence: AYYKPYVQL
- Kd (HLA-A*24:03 [1]; source organism: Bacillus cereus G9241): 0.0009 µM

Sequence: GYDFEREGY
- Kd (HLA-A*24:03 [1]; source organism: Influenza A virus (A/swine/Italy/1509-6/97(H1N1))): 0.0358 µM

Sequence: LQNFCQHLV
- Kd (HLA-B*57:01 [2]; [17]): ≥ 20 µM
- Kd (HLA-B*51:01; [17]): ≥ 20 µM
- Kd (HLA-A*26:01; [17]): ≥ 20 µM
- Kd (HLA-A*02:11; [17]): 0.0006 µM
- Kd (HLA-B*18:01 [3]): ≥ 20 µM
- Kd (HLA-A*02:01 [4]; [17]): 0.0024 µM
- Kd (HLA-B*46:01 [5]; [17]): ≥ 20 µM
- Kd (HLA-A*03:01 [6]; [17]): ≥ 20 µM
- Kd (HLA-A*24:03 [1]; [17]): ≥ 20 µM
- Kd (HLA-B*27:03; [17]): ≥ 20 µM
- Kd (HLA-A*02:19; [17]): 0.0251 µM
- Kd (HLA-A*29:02 [7]): 0.0196 µM

Sequence: SGLPGIFIV
- Kd (HLA-B*57:01 [2]; [18]): ≥ 20 µM
- Kd (HLA-A*02:03): ≥ 20 µM
- Kd (HLA-A*26:01; [18]): ≥ 20 µM
- Kd (HLA-A*02:11; [18]): 5.45 µM
- Kd (HLA-A*02:01 [4]; [18]): ≥ 20 µM
- Kd (HLA-B*46:01 [5]; [18]): ≥ 20 µM
- Kd (HLA-A*03:01 [6]; [18]): ≥ 20 µM
- Kd (HLA-B*15:17; [18]): ≥ 20 µM
- Kd (HLA-B*27:03; [18]): ≥ 20 µM
- Kd (HLA-B*15:01 [8]): ≥ 20 µM
- Kd (HLA-A*02:19; [18]): ≥ 20 µM

Sequence: TRDHVNLVL
- Kd (HLA-B*44:02; [19]): ≥ 20 µM
- Kd (HLA-B*27:05; [19]): ≥ 20 µM
- Kd (HLA-B*39:01; [19]): 0.0457 µM
- Kd (HLA-B*57:01 [9]; [19]): ≥ 20 µM
- Kd (HLA-A*01:01; [19]): ≥ 20 µM
- Kd (HLA-B*18:01 [10]; [19]): ≥ 20 µM
- Kd (HLA-B*48:01; [19]): ≥ 20 µM
- Kd (HLA-A*69:01; [19]): ≥ 20 µM
- Kd (HLA-B*07:02; [19]): ≥ 20 µM
- Kd (HLA-A*02:01 [11]; [19]): ≥ 20 µM
- Kd (HLA-B*46:01 [12]; [19]): ≥ 20 µM
- Kd (HLA-A*03:01 [13]; [19]): ≥ 20 µM
- Kd (HLA-B*58:01; [19]): ≥ 20 µM
- Kd (HLA-A*24:03 [14]): ≥ 20 µM
- Kd (HLA-A*02:12): ≥ 20 µM
- Kd (HLA-B*15:01 [15]; [19]): ≥ 20 µM
- Kd (HLA-A*31:01; [19]): ≥ 20 µM
- Kd (HLA-A*68:02): ≥ 20 µM
- Kd (HLA-A*29:02 [16]; [19]): ≥ 20 µM
- Kd (HLA-B*51:01; [19]): ≥ 20 µM
- Kd (HLA-A*26:01; [19]): ≥ 20 µM
- Kd (HLA-B*15:17; [19]): ≥ 20 µM
- Kd (HLA-B*27:03; [19]): ≥ 20 µM

Sequence: VHFRNQVKI
- Kd (HLA-B*27:05; [20]): ≥ 20 µM
- Kd (HLA-B*40:01; [20]): ≥ 20 µM
- Kd (HLA-B*39:01; [20]): 1.56 µM
- Kd (HLA-A*11:01; [20]): ≥ 20 µM
- Kd (HLA-B*08:02): ≥ 20 µM
- Kd (HLA-B*08:01): ≥ 20 µM
- Kd (HLA-A*01:01; [20]): ≥ 20 µM
- Kd (HLA-A*69:01; [20]): ≥ 20 µM
- Kd (HLA-B*07:02; [20]): ≥ 20 µM
- Kd (HLA-A*02:01 [11]; [20]): ≥ 20 µM
- Kd (HLA-B*46:01 [12]; [20]): ≥ 20 µM
- Kd (HLA-A*03:01 [13]; [20]): ≥ 20 µM
- Kd (HLA-B*58:01; [20]): ≥ 20 µM
- Kd (HLA-B*15:01 [15]; [20]): ≥ 20 µM
- Kd (HLA-A*31:01; [20]): ≥ 20 µM
- Kd (HLA-A*24:02): ≥ 20 µM

Sequence: VRDVVMPAL
- Kd (HLA-B*44:02; [21]): ≥ 20 µM
- Kd (HLA-B*27:05; [21]): ≥ 20 µM
- Kd (HLA-B*40:01; [21]): ≥ 20 µM
- Kd (HLA-B*39:01; [21]): 0.0674 µM
- Kd (HLA-B*57:01 [9]; [21]): ≥ 20 µM
- Kd (HLA-A*11:01; [21]): ≥ 20 µM
- Kd (HLA-A*01:01; [21]): ≥ 20 µM
- Kd (HLA-B*18:01 [10]; [21]): ≥ 20 µM
- Kd (HLA-B*48:01; [21]): ≥ 20 µM
- Kd (HLA-A*69:01; [21]): ≥ 20 µM
- Kd (HLA-A*02:01 [11]; [21]): ≥ 20 µM
- Kd (HLA-B*46:01 [12]; [21]): ≥ 20 µM
- Kd (HLA-A*03:01 [13]; [21]): ≥ 20 µM
- Kd (HLA-B*58:01; [21]): ≥ 20 µM
- Kd (HLA-B*15:01 [15]; [21]): ≥ 20 µM
- Kd (HLA-A*31:01; [21]): ≥ 20 µM
- Kd (HLA-A*29:02 [16]; [21]): ≥ 20 µM

— the Immune Epitope Database (IEDB)
